Drawing on a protein production outcome set (Wang et al. 2014), this text covers protein production for 30 sequences.

The nature of this series: label from the status in PepcDB records.
As to “VGVRRENATATGVLLIPDGPDCPRPYPILTWGPSTSAQRHVGQDKTIVNANGNTPLVTRLASQGYVLVSPDYLGLGDSDYPFHPYLHLFTEVSSTIDAVRAARDVLWHSNTPLSNKVMLSGFSQGGQAALAVQREIEAHQSLSQEFSLVASAPISGPYALSQTILDSWSGRNK”, the protein production entry was “failed”.

On to “VIAAHGWAGDATVWRAWQQRFEARGWHWDAIERGYGQREPHQPSWAELPGQRLVIAHSLGLHLLPEKVLQQADAVVSLAGFAAFVPAGAAGRALGVALKGMASCLGTSDEPAMLRKFLSRCASPLPLSALPNNPLLRGMHPSGRQRLQDDLVLLQQCQSLPDGWPEGASVLVVQGEQDAIVCPDSRTQLLQALPPSRTDHRLRPDEGHAVVTPAVLDLVVRWAGN”, for which the protein production entry is “failed”.

As for “VINLKELKILHTSDWHLGVTSWTSSRPVDRREELKKALDKVVEEAEKREVDLILLTGDLLHSRNNPSVVALHDLLDYLKRMMRTAPVVVLPGNHDWKGLKLFGNFVTSISSDITFVMSFEPVDVEAKRGQKVRILPFPYPDESEALRKNEGDFRFFLESRLNKLYEEALKKEDFAIFMGHFTVEGLAGYAGIEQGREIIINRALIPSVVDYAALGHIHSFREIQKQPLTIYPGSLIRIDFGEEADEKGAVFVELKRGEPPRYERIDASPLPLKTLYYKKIDTSALKSIRDFCRNFPGYVRVVYEEDSGILPDLMGEIDNLVKIE”, the protein production result is recorded as “not failed”.

For “VIVESLVYHLSGKTYESRLVYEPGALGRPGLVMAPNWMGIGEGAERIAKEVAEKGYVVLIADLYGQSVRPSNADEAGVAMMPLKNDRGELRKRMQEALAQLLGQSKALLEPGKVATFGFCFGGCCALELARSGADLRAAVSFHGTLDTPNPEDAKRIKGSVLVLHGASDPLVPKEQLPAFEDEMNAAKVDWQLLSYGGAVHSFTDPNANMPGKMQYDRRTSERAFRSMHNLLSEVF”, the protein production entry is listed as “failed”.

For “VKPKGAFKAFTGEGQKLGSTAPQVLSTSSPAQQAENEAKASSSILIDESEPTTNIQIRLADGGRLVQKFNHSHRISDIRLFIVDARPAMAATSFILMTTFPNKELADESQTLKEANLLNAVIVQRLT”, the protein production result was “failed”.

For the sequence “VKSIFEIDIEKLADSGVKGIITDLDNTLVGWDVKEPTKGVKSWFAKAKDLGITVTIVSNNNKSRVSSFSSNLGVDYIFKARKPMGKAFKMAIKKMKIQPRETVVVGDQMLTDVFGGNCNGLYTIMVVPVKRTDGLITKFN”, the protein production entry is listed as “not failed”.

For “VLRWITAGESHGRALVAVVEGMVAGVHVTSADIADQLARRRLGYGRGARMTFERDAVTVLSGIRHGSTLGGPIAIEIGNTEWPKWETVMAADPVDPAELADVARNAPLTRPRPGHADYAGMLKYGFDDARPVLERASARETAARVAAGTVARAFLRQALGVEVLSHVISIGASAPYEGPPPRAEDLPAIDASPVRAYDKAAEADMIAQIEAAKKDGDTLGGVVEAVALGLPVGLGSFTSGDHRLDSQLAAAVMGIQAIKGVEIGDGFQTARRRGSRAHDEMYPGPDGVVRSTNRAGGLEGGMTNGQPLRVRAAMKPISTVPRALATVDLATGDEAVAIHQRSDVCAVPAAGVVVETMVALVLARAALEKFGGDSLAETQRNIAAYQRSVADREAPAARVSG”, the protein production result is “not failed”.

Turning to “VMQMDRQPLVDPFGDYFQEFLSNAQNGQFFTPFGVCELMNQLITAPKVSDQPKQGDRRVLDPACGSGRLLLSAAQKDRALTFVGIDISYTCCLMTIINLCLNSLNGEVLHMNALTDQYWHRWL”, the protein production result is recorded as “failed”.

As for “VPKLVDHDERRRSITAAAWRLIAARGIEAANMRDIATEAGYTNGALSHYFAGKDEILRTSYEHISEATDRRIAEALGDATGLDALRILCREVMPINEEQLLEARIAASLWPRAMYDEQMAATNRRTMDNWREQMAIFLEQAREEGSVGDIDVTIVVEQLLNMMMGMQILGVLTPGETSSERQLEMLEQFVAAL”, the protein production entry is listed as “not failed”.

Consider “VPYAVEGRNYQGDLYLPCERIRAGLVLLPGAAEEGKDDPRLQAFAETLARARFAVLVPDLGGFRSLRAGSRDIGETADAILWLSSRPGLSPGGKCGVAALSYAGGPALLAALEPRAGQRVRFLVTVGGYYDLRNVLTFFTTGWYRDGDRWRRGTPNNYGKWVFVLANTDRIKNVRDRTALEKLARRKMDNPAARTDDLVRGLGPEGKSLYDFFANTDPRQVPALVERLPTPIRRDLAALDPSRRDLRGLTARLIIIHGRDDDIIPAAESEALARAVPRDRRGLFVLDGLMHVELKPKLTDAFRLWRAVSAILRER”, for which the protein production result was “failed”.

Regarding “VQRCVIIQKDQHGFGFTVSGDRIVLVQSVRPGGAAMKAGVKEGDRIIKVNGTMVTNSSHLEVVKLIKSGAYVALTLLGSS”, the protein production result is given as “not failed”.

“VQRPWLAPLPGAPMNACRLLLCFPYGGGGASAFNDLSRLADVGVATWAVKLPGREDRSMEAPVTRVANVIEAIVDALQSVGIPYAFYGHSFGAGLALDVAHALAERDRPLPTHLVLSGRMPPHTGYSPLLGAMDDNQLWQHVCSESLLPLPTDASCSFARHALGKLKADLALNAQLTYRFIRPLPVPLYVLNGQDDPLLELHRLDEWQRYTSTSFHSEYVPGGHFFFNINFQLLYLPLLTALD”: the protein production entry is given as “not failed”.

For “VQVGNCLQVMWLADRHSDPELYTAAKHCAKTHLAQLQNTEEFLHLPHRLLTDIISDGVPCSQNPTEAIEAWINFNKEEREAFAESLRTSLKEIGENVH”, the protein production entry is given as “not failed”.

For “VRQVEEYIEANWMRPITIEKLTALTGISSRGIFKAFQRSRGYSPMAFAKRVRLQHAHNLLSDGATPTTVTAAALSCGFSNLGHFARDYRDMFGEKPSETLQRARP”, the protein production entry is recorded as “not failed”.

As to “VTATETVRVRFCPSPTGTPHVGLVRTALFNWAYARHTGGTFVFRIEDTDAQRDSEESYLALLDALRWLGLDWDEGPEVGGPYGPYRQSQRAEIYRDVLARLLAAGEAYHAFSTPEEVEARHVAAGRNPKLGYDNFDRHLTDAQRAAYLAEGRQPVVRLRMPDDDLAWNDLVRGPVTFAAGSVPDFALTRASGDPLYTLVNPCDDALMKITHVLRGEDLLPSTPRQLALHQALIRIGVAERIPKFAHLPTVLGEGTKKLSKRDPQSNLFAHRDRGFIPEGLLNYLALLGWSIADDHDLFGLDEMVAAFDVADVNSSPARFDQKKADALNAEHIRMLDVGDFTVRLRDHLDTHGHHIALDEAAFAAAAELVQTRIVVLGDAWELLKFFNDDQYVIDPKAAAKELGPDGAAVLDAALAALTSVTDWTAPLIEAALKDALIEGLALKPRKAFSPIRVAATGTTVSPPLFESLELLGRDRSMQRLRAARQLVGHA”, the protein production result is reported as “not failed”.

Regarding “VTDVLLCVGNSMMGDDGAGPLLAEKCAAAPKGNWVVIDGGSAPENDIVAIRELRPTRLLIVDATDMGLNPGEIRIIDPDDIAEMFMMTTHNMPLNYLIDQLKEDIGEVIFLGIQPDIVGFYYPMTQPIKDAVETVYQRLEGWEGNGGFAQLAVEEE”, the protein production entry was “not failed”.

Take “VTEEEIHAMLEEGSVAGIIEQQEHEMVRNVFRLDDRQLGSLMVPRADIIYLDTALPLEENMKRVVESEHSRFPVCHNGLQSLLGVVNAKQLLAQTIKGGVTNLAEHLQPCVYVPETLTGMELLDHFRTSGTQMVFVVDEYGEIQGLVTLQDMLEAVTGEFA”: the protein production result was “not failed”.

Turning to “VTLSSGMQALLDDKFVYLAVNQAYAEKLNLTIDQVIGKHPRDIYSKGYFESELKIYSERCLAGEIIKLEKWMRSSSGQAWFIDIEMSPYYQNDGNIYGVMVNARDIT”, the protein production entry is recorded as “failed”.

“VYGSEVESKIIEFTIVGADEIIAEKLGISVGDFVYKIIRLRIIHSIPTIMEHTWMPISVIPGVEVSVLEESIYSHIQNKLGLQVGTSVVRVKGIRPDDKEKQFMNLTNQDFLMRVEQVAYLTDGRTFEYSYADHLPETFEFETVITAKSYKEA”: the protein production entry is “not failed”.

Consider “VYRRILLTVDEDDNTSSERAFRYATTLAHDYDVPLGICSVLESEDINIFDSLTPSKIQAKRKHVEDVVAEYVQLAEQRGVNQVEPLVYEGGDVDDVILEQVIPEFKPDLLVTGADTEFPHSKIAGAIGPRLARKAPISVIVVR”, for which the protein production entry is “failed”.

For “WFMPFDNWLYQLQNADPVEISSSGFEIAVIDYSKDGSESGEYSPEEIKIMVDAGVVPVAYVNIGQAEDYRFYWKESWYTNTPEWLGEEDPAWPGNYFVKYWYNEWKEIVFSYLDRVIDQGFKGIYLDRIDSFEYWAQEGVISRRSAARKMINFVLEIAEYVRERKPDMLIIPQNGENILDFDDGQLASTVSGWAVENLFYLKTIPLEENETKSRLEYLIRLNRKGKFILSVDYVDDGSDSFENISRILDYYEKAKRNGCIPYAARSDLELDEMNVIEGIQPPEALKDYESRTYR”, the protein production entry is “not failed”.

With “WMLGIPIGGLLAFILGGAALSVFHFGMDYTNRNEFCYSCHIGMDTIVEEYQASPHFKNAQGVIAATCSDCHVPREFFAKIALKIGATADIYHKLKGDITLDNFEAEHRPRLAAEVTQQFIENKSKQCRYCHSVDKMDFEAQGRTVARRHQMMESRDQSCIDCHAGIAHHLPISLDSPET”, the protein production entry is “failed”.

For the sequence “WPGRDRLRHLEPLRSITQLAALLANELEASVSPDTPLLLAGHSMGAQVAFETCRLLEQRGLAPQGLIISGCHAPHLHSERQLSHRDDADFIAELIDIGGCSPELRENQELMSLFLPLLRADFYATESYHYDSPDVCPPLRTPALLLCGSHDREASWQQVDAWRQWLSHVTGPVVIDGDHFYPIQQARSFFTQIVRHFP”, the protein production entry is listed as “failed”.

For “WPIWTRRSDGTLSFANAAYARATDASDAADAIGRNLELLDSGDRAALARALGDGYEYSGRLPIVVGGERRYYDVRALKVSGGSAGIAVDATETAALGAALERMADAHRRTLDQLSSGVAVFDAQRRLSFYNDSYRKLWDL”, the protein production result was “failed”.

Take “WYENYRWFFTSEGFLVIGGRTAEMNEEIVAKHLESLDLFFHTQTPGAPAVILKRGQEAGEESIREAAEFAATYSALWKEGKHAGEVYYVLPEQVSKSAKAGEYLPK”: the protein production entry is on record as “failed”.

As to “YALTEGEDYLVLDKPIPQEQPGKIEVLEFFGYFCVHCHHFDPLLLKLGKALPSDTYLRTEHVVWRPEMLGLARMAAAVKLSGLKYQANSAVFKAVYEQKIRLENRAVAGKWALSQKGFDGKKLMRAYDSPEAAAVALKMQKLTEQYGIDSTPTVIVGGKYRVIFNNGFDGGVHTIKELVAK”, the protein production result is “failed”.

“YDFIDNPGFDESHSLTEMREAFLSFFEDRDHERIDPYPVAANRWRDDVLLTQASIYDFQPLVTSGTTPPPANPLCISQPCIRMQDIDNVGKTGRHTMAFEMMAHHAFNAREDIEDPEQYAYEGEVYWKNETVQYCDELFEEMGANLDEIVYIEDPWVGGGNAGPAIEVIYRGAELATLVFMSMEQDSDGEYEMKDGNRYSPMDTYIVDTGYGLERWTWMSQGTPTVYEAVYPDMIAFLKDNAGIELTDEEERIVHEAAKLAGRMDI”: the protein production result was “failed”.

As for “YDQVTRIIGVAKDITDQIEASESLRDSEQRYRMLAESISDVIFSTDSKLSLNYVSPSVHAVLGYDVEWIFQNGWQSTIANPQQLSGIYTLMDRVSKALDKPEQLAQLRSQVQTQLFLFDCLRADGRKIPIELRLVLVWDEHGAFEGVLGVGRDISQQRRAEKDLRMAATVFEHSTS”, the protein production entry is listed as “failed”.

With “YENFIIAGHKEPDGDCIGSCLAMSFFLKRKNKNCILMSAGPFKRTEIKEYEHLFTDKLKISDKINPKTTGLIILDCSNFDRVGEIAELISGFNYIIIDHHATNTEKSDTSLIMPEAPSTTYLIQSIIEEIGEKLTKEEADALFFGLCTDTGFFRHLDAGSAEVFAHASRLIEAG”, the protein production entry is listed as “failed”.

In the case of “YGNVWPWKSYEHVVAIAGGIGIPPIKALIEDMQGHTSLDKLTVLYGARSPSDIVYRSEIETWKEEMDFRITVDKGDENWRGHVGVVTTLVPEIKEYNHGAAFVIGPPVMMKFSVKSLLDAGFAEDNIYLSLERRMECG”, the protein production result was “failed”.
